The values below come from US20260232827A1 (Zymeworks, published 2026).

In assay [1] the target is T1, cynomolgus monkey NaPi2b (cynomolgus monkey, UniProt O95436 1-690 (human entry)).
T1 construct: also called Cyno NaPi2b; Cy NaPi2b
T1 chain: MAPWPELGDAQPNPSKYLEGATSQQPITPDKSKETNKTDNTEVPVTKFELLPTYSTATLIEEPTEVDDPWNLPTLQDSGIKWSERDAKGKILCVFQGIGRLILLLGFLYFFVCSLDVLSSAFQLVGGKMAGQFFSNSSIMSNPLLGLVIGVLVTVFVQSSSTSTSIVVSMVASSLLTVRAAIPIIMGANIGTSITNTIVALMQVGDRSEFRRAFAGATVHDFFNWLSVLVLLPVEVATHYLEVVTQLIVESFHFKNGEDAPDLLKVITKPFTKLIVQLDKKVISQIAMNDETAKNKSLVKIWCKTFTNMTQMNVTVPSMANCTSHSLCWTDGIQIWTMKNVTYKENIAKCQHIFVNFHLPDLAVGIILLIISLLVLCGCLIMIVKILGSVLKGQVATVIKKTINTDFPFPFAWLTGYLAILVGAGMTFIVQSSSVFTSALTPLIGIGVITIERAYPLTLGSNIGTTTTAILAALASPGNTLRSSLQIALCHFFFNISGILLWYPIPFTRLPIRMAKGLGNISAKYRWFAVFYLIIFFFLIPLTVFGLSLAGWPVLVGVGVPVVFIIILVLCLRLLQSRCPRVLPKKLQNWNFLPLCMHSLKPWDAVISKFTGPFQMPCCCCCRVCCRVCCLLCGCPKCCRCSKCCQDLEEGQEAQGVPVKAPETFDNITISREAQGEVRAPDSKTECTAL
In words: flow cytometry, HEK293-6e cells transfected with cynomolgus NaPi2b. (In general: Flow cytometry measures light scatter and fluorescence of single cells or particles in a stream.)
Method: (§1) Briefly, HEK293-6e cells were transfected for ~24 hours to transiently express human NaPi2b, cynomolgus or mouse NaPi2b, at 1 μg of DNA per 1 million cells. Following transfection, 50,000 cells per well were seeded in V-bottom 96-well plates and incubated with 200 nM of primary antibody for 18-24 hours at 4° C. to prevent internalization. […] Following staining and washing, fluorescence was detected by flow cytometry on BD LSRFortessa™ Cell Analyzer (BD Biosciences, Franklin Lake, NJ) with 10,000 minimum events collected per well. The AF647/APC-A GeoMean (fluorescence signal geometric mean, proportional to anti-Human AF647 binding) was calculated for the live singlet cell population for each primary antibody using FlowJo™ v8 software (BD Biosciences, Franklin Lake, NJ). The Bmax and Kd of each primary antibody were calculated using GraphPad Prism Version 9 (GraphPad Software, San Diego, CA)

For assay [2], the target named is T2, human sodium-dependent phosphate transporter 2B (NaPi2b) (human, UniProt O95436 1-690).
T2 construct: UniProt ID is given as 095436 [sic]; also called hNaPi2b; Hu NaPi2b
T2 sequence: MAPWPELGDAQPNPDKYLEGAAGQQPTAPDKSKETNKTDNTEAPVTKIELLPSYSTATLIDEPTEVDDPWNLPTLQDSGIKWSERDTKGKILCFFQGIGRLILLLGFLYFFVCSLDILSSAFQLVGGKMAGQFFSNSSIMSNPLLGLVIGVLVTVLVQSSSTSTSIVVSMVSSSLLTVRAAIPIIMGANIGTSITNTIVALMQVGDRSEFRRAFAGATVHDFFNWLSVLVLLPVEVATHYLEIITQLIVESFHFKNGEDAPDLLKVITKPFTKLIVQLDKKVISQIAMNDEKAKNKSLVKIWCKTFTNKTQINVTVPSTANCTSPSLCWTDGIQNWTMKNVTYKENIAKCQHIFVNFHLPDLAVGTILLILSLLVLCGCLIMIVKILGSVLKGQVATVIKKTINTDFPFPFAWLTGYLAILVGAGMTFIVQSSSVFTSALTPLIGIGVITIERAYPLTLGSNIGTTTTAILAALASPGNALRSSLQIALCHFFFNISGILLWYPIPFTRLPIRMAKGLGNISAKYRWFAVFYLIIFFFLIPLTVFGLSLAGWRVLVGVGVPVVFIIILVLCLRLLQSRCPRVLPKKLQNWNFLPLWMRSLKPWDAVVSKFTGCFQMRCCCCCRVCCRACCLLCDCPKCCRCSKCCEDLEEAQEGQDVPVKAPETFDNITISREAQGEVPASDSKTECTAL
Nature of the assay: flow cytometry on HEK293-6e cells transiently transfected with human NaPi2b, antibody 18-24 h at 4 C, anti-human IgG Fc AF647.
Method: as §1

Assay [3] addresses T2, human sodium-dependent phosphate …. In words: flow cytometry, HEK293-6e cells transfected with human NaPi2b.
Method: as §1
For assay [4], the target named is T1, cynomolgus monkey NaPi2b. Nature of the assay: flow cytometry on HEK293-6e cells transfected with cynomolgus monkey NaPi2b, 24 h at 4 C, anti-human IgG Fc AF647.
Method: (§2) Following transfection, cells were seeded at 50,000 cells/well in conical-bottom 96-well plates and treated with test antibody or antibody-drug conjugate for 24 hours at 4° C. to prevent internalization. […] Following incubation and washing, fluorescence was detected by flow cytometry on a BD LSRFortessa™ Cell Analyzer (BD Biosciences, Franklin Lake, NJ) with 1,000 minimum events collected per well.
In assay [5] the target is T1, cynomolgus monkey NaPi2b. In words: flow cytometry, HEK293-6e cells transfected with cynomolgus NaPi2b; apparent Kd.
Method: as §1
Assay [6] addresses T2, human sodium-dependent phosphate …. In words: flow cytometry, HEK293-6e cells transfected with human NaPi2b; apparent Kd.
Method: as §1
Another assay concerns the target T3, mouse NaPi2b (mouse, UniProt Q9DBP0 1-697).
T3 construct: also called Ms NaPi2b; CL #13476
T3 sequence: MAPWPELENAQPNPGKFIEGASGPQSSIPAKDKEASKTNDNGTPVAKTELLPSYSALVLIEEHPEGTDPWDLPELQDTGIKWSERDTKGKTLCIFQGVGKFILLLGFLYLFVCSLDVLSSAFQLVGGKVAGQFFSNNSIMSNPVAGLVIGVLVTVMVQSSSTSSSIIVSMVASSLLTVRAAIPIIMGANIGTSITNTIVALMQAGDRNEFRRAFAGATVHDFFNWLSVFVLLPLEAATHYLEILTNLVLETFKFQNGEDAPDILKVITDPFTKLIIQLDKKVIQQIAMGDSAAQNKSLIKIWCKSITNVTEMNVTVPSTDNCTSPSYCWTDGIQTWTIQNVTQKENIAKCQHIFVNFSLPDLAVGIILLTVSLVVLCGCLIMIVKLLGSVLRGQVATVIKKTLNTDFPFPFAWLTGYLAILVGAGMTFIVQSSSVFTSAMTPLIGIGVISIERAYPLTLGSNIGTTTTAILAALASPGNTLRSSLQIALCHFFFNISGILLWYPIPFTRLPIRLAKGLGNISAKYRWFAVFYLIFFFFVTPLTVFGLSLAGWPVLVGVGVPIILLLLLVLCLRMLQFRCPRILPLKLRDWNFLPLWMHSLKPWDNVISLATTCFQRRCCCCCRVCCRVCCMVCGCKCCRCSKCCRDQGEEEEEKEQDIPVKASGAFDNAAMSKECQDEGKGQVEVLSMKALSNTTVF
In words: flow cytometry on HEK293-6e cells transfected with mouse NaPi2b, 24 h at 4 C, anti-human IgG Fc AF647.

The target in assay [7] is T2, human sodium-dependent phosphate …. In words: flow cytometry on HCC-78 cells (endogenous NaPi2b), 24 h at 4 C, anti-human IgG Fc AF647, APC-A GeoMean.
Method: Cells were maintained under standard culture conditions (37° C./5% CO₂) until assay set-up. […] Cells were removed from culture vessels using Cell Dissociation Buffer (Invitrogen, Waltham, MA), seeded at 50,000 cells/well in conical-bottom 96-well plates, and treated with test antibody or antibody-drug conjugate for 24 hours at 4° C. to prevent internalization. […] Following incubation and washing, fluorescence was detected by flow cytometry on a BD LSRFortessa™ Cell Analyzer (BD Biosciences, Franklin Lake, NJ) with 1,000 minimum events collected per well.

Method for mouse NaPi2b: as §2

B1: v18993 (lifastuzumab), reference anti-NaPi2b antibody (antibody, human IgG1, kappa)
heavy 1: GEVQLVESGGGLVQPGGSLRLSCAASGFSFSDFAMSWVRQAPGKGLEWVATIGRVAFHTYYPDSMKGRFTISRDNSKNTLYLQMNSLRAEDTAVYYCARHRGFDVGHFDFWGQGTLVTVSSASTKGPSVFPLAPSSKSTSGGTAALGCLVKDYFPEPVTVSWNSGALTSGVHTFPAVLQSSGLYSLSSVVTVPSSSLGTQTYICNVNHKPSNTKVDKKVEPKSCDKTHTCPPCPAPELLGGPSVFLFPPKPKDTLMISRTPEVTCVVVDVSHEDPEVKFNWYVDGVEVHNAKTKPREEQYNSTYRVVSVLTVLHQDWLNGKEYKCKVSNKALPAPIEKTISKAKGQPREPQVYVYPPSRDELTKNQVSLTCLVKGFYPSDIAVEWESNGQPENNYKTTPPVLDSDGSFALVSKLTVDKSRWQQGNVFSCSVMHEALHNHYTQKSLSLSPG
heavy 2: not shown
light: GDIQMTQSPSSLSASVGDRVTITCRSSETLVHSSGNTYLEWYQQKPGKAPKLLIYRVSNRFSGVPSRFSGSGSGTDFTLTISSLQPEDFATYYCFQGSFNPLTFGQGTKVEIKRTVAAPSVFIFPPSDEQLKSGTASVVCLLNNFYPREAKVQWKVDNALQSGNSQESVTEQDSKDSTYSLSSTLTLSKADYEKHKVYACEVTHQGLSSPVTKSFNRGEC
For orientation: EC50 (read off the curve) means the concentration that produces a half-maximal response. Turning to B1, the Bmax worked out at 1560 with cynomolgus monkey NaPi2b [1] and 1610 in assay [3]. Moreover, the “EC50 (read off the curve)” value in assay [2] is ~1 nM; with cynomolgus monkey NaPi2b [4], ~5 nM. Further, the Kd in the assay with cynomolgus monkey NaPi2b [5] stood at 6.27 nM; in assay [6], 1.22 nM.

B2: v18992 (MX35), reference anti-NaPi2b antibody (antibody, human IgG1, kappa)
heavy 1: GQVQLVQSGAEVVKPGASVKMSCKASGYTFTGYNIHWVKQAPGQGLEWIGAIYPGNGDTSYKQKFRGRATLTADTSTSTVYMELSSLRSEDSAVYYCARGETARATFAYWGQGTLVTVSSASTKGPSVFPLAPSSKSTSGGTAALGCLVKDYFPEPVTVSWNSGALTSGVHTFPAVLQSSGLYSLSSVVTVPSSSLGTQTYICNVNHKPSNTKVDKKVEPKSCDKTHTCPPCPAPELLGGPSVFLFPPKPKDTLMISRTPEVTCVVVDVSHEDPEVKFNWYVDGVEVHNAKTKPREEQYNSTYRVVSVLTVLHQDWLNGKEYKCKVSNKALPAPIEKTISKAKGQPREPQVYVYPPSRDELTKNQVSLTCLVKGFYPSDIAVEWESNGQPENNYKTTPPVLDSDGSFALVSKLTVDKSRWQQGNVFSCSVMHEALHNHYTQKSLSLSPG
heavy 2: not shown
light: GDIQMTQSPSSLSASVGDRVTITCSASQDIGNFLNWYQQKPGKTVKVLIYYTSSLYSGVPSRFSGSGSGTDYTLTISSLQPEDFATYYCQQYSKLPLTFGQGTKLELKRTVAAPSVFIFPPSDEQLKSGTASVVCLLNNFYPREAKVQWKVDNALQSGNSQESVTEQDSKDSTYSLSSTLTLSKADYEKHKVYACEVTHQGLSSPVTKSFNRGEC
On to B2, for which the figures for the Bmax (with cynomolgus monkey NaPi2b [1]; in assay [3]) were 2360 and 1900, respectively. Besides, the Kd with cynomolgus monkey NaPi2b [5] stood at 31 nM; in assay [6], 1.98 nM.

B3: v22277 (palivizumab, anti-RSV negative control, heterodimeric Fc) (antibody, human IgG1, kappa)
heavy 1: GQVTLRESGPALVKPTQTLTLTCTFSGFSLSTSGMSVGWIRQPPGKALEWLADIWWDDKKDYNPSLKSRLTISKDTSKNQVVLKVTNMDPADTATYYCARSMITNWYFDVWGAGTTVTVSSASTKGPSVFPLAPSSKSTSGGTAALGCLVKDYFPEPVTVSWNSGALTSGVHTFPAVLQSSGLYSLSSVVTVPSSSLGTQTYICNVNHKPSNTKVDKKVEPKSCDKTHTCPPCPAPELLGGPSVFLFPPKPKDTLMISRTPEVTCVVVDVSHEDPEVKFNWYVDGVEVHNAKTKPREEQYNSTYRVVSVLTVLHQDWLNGKEYKCKVSNKALPAPIEKTISKAKGQPREPQVYVYPPSRDELTKNQVSLTCLVKGFYPSDIAVEWESNGQPENNYKTTPPVLDSDGSFALVSKLTVDKSRWQQGNVFSCSVMHEALHNHYTQKSLSLSPG
heavy 2: not shown
light: GDIQMTQSPSTLSASVGDRVTITCKSQLSVGYMHWYQQKPGKAPKLLIYDTSKLASGVPSRFSGSGSGTEFTLTISSLQPDDFATYYCFQGSGYPFTFGGGTKLEIKRTVAAPSVFIFPPSDEQLKSGTASVVCLLNNFYPREAKVQWKVDNALQSGNSQESVTEQDSKDSTYSLSSTLTLSKADYEKHKVYACEVTHQGLSSPVTKSFNRGEC
notes: also called neg control
Turning to B3, the binding result (in assay [2]; with mouse NaPi2b) was “no binding (tested: 200 nM)” each time.

B4: v38591 (humanized anti-NaPi2b antibody, wild-type Fc) (antibody, human IgG1, kappa)
heavy: not shown
light: DVQMTQSPSSLSASVGDRVTITCRASQDVYSYLNWYQQKPGKAVKLLIYYTSRLQSGVPSRFSGSGSGTDYTLTISSLQPEDFATYYCQQYNIFPWTFGQGTKLEIKRTVAAPSVFIFPPSDEQLKSGTASVVCLLNNFYPREAKVQWKVDNALQSGNSQESVTEQDSKDSTYSLSSTLTLSKADYEKHKVYACEVTHQGLSSPVTKSFNRGEC
notes: also called v38591 Wild-type; H1L2
Turning to B4, the “EC50 (read off the curve)” value in assay [7] was ~3 nM; with cynomolgus monkey NaPi2b [4] it was ~0.3 nM; with mouse NaPi2b it was ~0.3 nM.
